Experimental data published in patent US20110287023A1 (AstraZeneca / MedImmune, published 2011).
Where no end group is shown, it is not given here.

What was measured:
[1] = molecular target: T1, nuclear HMGB1 in fixed HUVEC cells (UniProt P09429 1-215, limits assumed); test: immunofluorescence on fixed HUVEC, anti-human IgG-FITC; paragraph 81 gives the lower panels as G4
T1 construct: whole, on cells; immunostaining
T1 sequence (looked up): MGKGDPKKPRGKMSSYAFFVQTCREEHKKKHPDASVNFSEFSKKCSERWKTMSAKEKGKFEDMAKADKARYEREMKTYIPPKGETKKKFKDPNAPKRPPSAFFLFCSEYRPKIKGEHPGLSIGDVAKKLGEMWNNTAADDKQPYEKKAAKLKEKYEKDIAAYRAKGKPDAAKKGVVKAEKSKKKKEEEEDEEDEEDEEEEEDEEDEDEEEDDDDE
Experimental: (§1) Immunofluorescence: Intracytoplasmic (ic) HMGB1 was quantitated by direct immunofluorescence. HUVEC were harvested by trypsin-EDTA treatment and seeded on a glass coverslip. Once the cells are settled, they were stimulated with 0.2 μg/ml of LPS (Sigma) for 4 hours. The cells were fixed in 2% paraformaldehyde for 15 min and then permeabilized in 0.2% Triton X-100 for 2 min. Fixed and permeabilized cells were incubated with anti-HMGB1 antibodies at 1 μg/ml for 1 hour at room temperature. Cells were then washed to remove excess or nonspecifically bound primary antibody followed by incubation with anti human IgG conjugated with fluorescence (Pierce). The sections were mounted with fluoromount (Southern Associates, Birmingham, Ala.), and the images were processed with a Nikon microscope (Japan) and a SPOT imaging system (Diagnostic Instrument).

[2] = molecular target: T2, actively secreted HMGB1 of LPS treated HUVEC cells (UniProt P09429 1-215, limits assumed); test: immunofluorescence on fixed LPS treated HUVEC, anti-human IgG-FITC; paragraph 81 gives the lower panels as G4
T2 construct: whole, on cells; immunostaining
T2 sequence (looked up): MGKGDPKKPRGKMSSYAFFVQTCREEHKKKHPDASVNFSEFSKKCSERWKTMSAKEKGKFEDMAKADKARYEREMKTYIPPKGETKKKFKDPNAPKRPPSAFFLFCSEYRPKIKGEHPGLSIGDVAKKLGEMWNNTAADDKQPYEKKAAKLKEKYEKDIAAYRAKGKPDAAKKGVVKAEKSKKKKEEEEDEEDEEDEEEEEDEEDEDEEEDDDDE
Experimental: as §1

[3] = molecular target: T3, HMGB1 peptide 106-123 (also: biotinylated, site and spacer not given here); test: ELISA, biotinylated peptide on NeutrAvidin plate, antibody serially diluted from 10 ug/ml, anti-human IgG-HRP, OD 450
T3 peptide: CSEYRPKIKGEHPGLSIG
Experimental: (§2) The plate was then blocked with 4% milk powder dissolved in PBS at 37° C. for 1 hour. The blocking solution was removed and replaced with human anti-HMG1 antibodies at various concentrations (see FIGS. 5A-B). […] HRP activity was detected with Sureblue HRP substrate (KPL). Plates were read at 450 nm using a Kinetic Microplate Reader (Molecular Devices). […] After washing and blocking with 1% BSA in PBS, the biotinylated peptides were individually added into the avidin coated wells and incubated for 30 min at room temperature. The serial diluted antibody G4, S16 and S6 at the initial concentration at 10 μg/ml were then transferred into the wells followed by adding mouse anti human IgG-HRP conjugate (Pierce). Detection was accomplished by adding 50 μl of tetramethylbenzidine (TMB) substrate (KPL) and the absorbance was read at 450 nm.

[4] = molecular target: T4, HMGB1 peptide 179-186 (UniProt P09429 179-186, also: biotinylated, site not given here); test: as above
T4 peptide (looked up): EKSKKKKE
Experimental: as §2

[5] = molecular target: T5, HMGB1 peptide 166-183 (UniProt P09429 166-183, also: biotinylated, site not given here); test: as above
T5 peptide (looked up): GKPDAAKKGVVKAEKSKK
Experimental: as §2

[6] = molecular target: T6, HMGB1 in sera of septic peritonitis mice (mouse, UniProt P63158 1-215); test: sandwich ELISA: antibody captured on anti-human Fc, peritonitis serum added, mouse anti-HMGB1 detection, OD 450
T6 construct: also called HMGB1 from sepsis sera (ELISA); peritonitis sera HMGB1
T6 sequence (looked up): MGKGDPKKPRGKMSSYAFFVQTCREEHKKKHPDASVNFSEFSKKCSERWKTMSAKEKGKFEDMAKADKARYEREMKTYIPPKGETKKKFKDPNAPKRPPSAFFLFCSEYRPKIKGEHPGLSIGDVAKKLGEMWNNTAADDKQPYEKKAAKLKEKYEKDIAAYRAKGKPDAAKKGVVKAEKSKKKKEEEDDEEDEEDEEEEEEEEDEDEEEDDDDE
Experimental: HMGB1 Detection from Biological Samples: For detection of the HMGB1 from AIA joint homogenates and peritonitis sera, sandwich ELISA was performed. Goat anti-human Fc (Pierce) 14 μg/ml in PBS was coated on Immunlon IV microtiter plate over night at 4° C. After washing and blocking with 5% milk 1 hr at room temperature, G4 or S6 in blocking buffer (10 μg/ml) were added to each well of the blocked plate. The plate was washed 1 hour later and 25 μl of AIA homogenates containing 0.8 μg/ml of HMGB1 or peritonitis sera containing 7 μg/ml of HMGB1 in 0.5 M NaCl/blocking buffer were added to the wells at two fold serial dilutions. The unbound materials were removed by washing one hr after incubation. The bound HMGB1 was detected by a mouse anti-HMGB1 antibody at 2 μg/ml followed by an anti-mouse antibody conjugated with horseradish peroxidase. Mouse peritonitis sera was obtained by heart puncture 7 days after infection with heat killed staphylococcus aureus. Joint lysate was prepared from the whole paw of AIA rats as described in Example 6 below. Human sepsis sera were purchased from a commercial source.

B1: human anti-HMG1 antibody G4 (antibody, IgG1, V domains shown)
VH: EVQLLESGGGLVQPGGSLRLSCAASGFTFSWYDMTWVRQAPGKGLEWVSSISPSGGYTKYADSVKGRFTISRDNSKNTLYLQMNSLRAEDTAVYYCTTEFYDYLDVWGKGTTVTVSS
VL: DIQMTQSPGTLSLSPGEGATLSCRASQSVSSTYLAWYQQKPGQAPRLLIYEASKRATGTPARFSGSGSGTDFTLSISSLEPEDFAVYYCQHRHNWPPQWTFGQGTKVEVK
notes: full length IgG1 made from a human Fab phage clone; also called ATCC PTA-6258
B1: binds [1]; binds [2]; binds [3].

B2: human anti-HMG1 antibody S16 (antibody, IgG1, V domains shown)
VH: EVQLLESGGGLVQPGGSLRLSCAASGFTFSWYSMLWVRQAPGKGLEWVSYISPSGGFTNYADSVKGRFTISRDNSKNTLYLQMNSLRAEDTAVYYCARWDYNSGWYYDHWGQGTLVTVSS
VL: DIQMTQSPDTLSLSPGERATLSCRASQSVNSRNLAWYQQKPGQAPRLLIYGASTRATGIPDRFSGSVSGTEFTLTISSLQPDDFATYYCQQYNSYFTFGQGTKLEIK
notes: full length IgG1 made from a human Fab phage clone; also called ATCC PTA-6259
B2: binds [4]; binds [5].

B3: human anti-HMG1 antibody S6 (antibody, V domains shown)
VH: EVQLLESGGGLVQPGGSLRLSCAASGFTFSWYDMSWVRQAPGKGLEWVSRISPSGGYTMYADSVKGRFTISRDNSKNTLYLQMNSLRAEDTAVYYCARLEVGATSGGTAFDIWGQGTMVTVSS
VL: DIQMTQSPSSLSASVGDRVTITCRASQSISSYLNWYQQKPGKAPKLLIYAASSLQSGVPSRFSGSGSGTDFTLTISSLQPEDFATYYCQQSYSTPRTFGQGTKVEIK
notes: full length IgG1 made from a human Fab phage clone; two paragraphs print 'S4' for the PTA-6143 deposit; also called ATCC PTA-6143
B3: binds [6].
